Biological target: T1, ErbB2 (UniProt P04626 23-1255, limits assumed)
T1 construct: also called Her2; HER2
Experiment: not described (data not shown)

B1: Erbin1-693βgal, fusion protein containing the N-terminal 693 aa residues of Erbin and β-galactosidase (other, mouse, UniProt Q80TH2 1-693, looked up)
chain: MTTKRSLFVRLVPCRCLRGEEETVTTLDYSHCSLEQVPKEIFTFEKTLEELYLDANQIEELPKQLFNCQSLHKLSLPDNDLTTLPASIANLINLRELDVSKNGIQEFPENIKNCKVLTIVEASVNPISKLPDGFSQLLNLTQLYLNDAFLEFLPANFGRLTKLQILELRENQLKMLPKTMNRLTQLERLDLGSNEFTEVPEVLEQLSGLREFWMDGNRLTFIPGFIGSLRQLTYLDVSKNNIEMVEEGISTCENLQDFLLSSNSLQQLPETIGSLKNVTTLKIDENQLMYLPDSIGGLRSIEELDCSFNEIEALPSSIGQLTNMRTFAADHNYLQQLPPEIGNWKNITVLFLHCNKLETLPEEMGDMQKLKVINLSDNRLKNLPFSFTKLQQLTAMWLSDNQSKPLIPLQKETDTETQKMVLTNYMFPQQPRTEDVMFISDNESFNPALWEEQRKQRAQVAFECDEDKDEREAPPREGNLKRYPTPYPDELKNMVKTVQTIVHRLKDEETNEESGRDLKQHEDQQVVNKDKCVKTSESTTTKSKLDEREKYMNSVQKMSEPEAETNGGNLPVTASMKLSGNLKHIVNHDDVFEESEELSSDEEMKMAEMRPPLIESSINQPKVVALSNNKKDDAKDADSLSDEVTHNSNQNNSNCSSPSRMSDSVSLNTDSSQDTSLCSPVKQTPVDSNSKVR
notes: Expressed in erbin ΔC/ΔC mice; lacks residues 694-1450 of mouse Erbin, including the PDZ domain; not shown: β-galactosidase encoded by the inserted lacZ gene
binding result: no binding

Reference: patent US20140243268A1 (GEORGIA REGENTS RESEARCH INSTITUTE, published 2014)
